Publication PMC11543927, “Subtleties in Clathrin heavy chain binding boxes provide selectivity among adaptor proteins of budding yeast” (Nature Communications, 2024)

Columns and labels:
[1] = system: Abp1-mTurquoise2 at endocytic sites; experiment: Lifetime TIRF microscopy, Abp1+ / Abp1- endocytic events of Ent1/Ent2-mNeonGreen; assay type: cell-based, Saccharomyces cerevisiae; conditions: Supp. Figure 12; Ent1-mNeonGreen in yeast strains with Chc WT or box mutants (Cla, Cla + Arr, Cla + W); Type ABP+; average of single points
Method: To determine the effect of mutating the CHC-NTD Clathrin, Arrestin and W-boxes in how endocytosis progresses, cells tagged with Ent1/2p-mNeonGreen, Chc-mScarlet and Abp1-mTurquoise2 were used. Yeast cells previously described were grown overnight at 30 °C with shaking in a 24-well plate using LD(=low-fluorescence SD)-Trp^-, Leu^- medium (yeast nitrogen base without amino acids supplemented with the corresponding DropOut media, Foredium, CYN402). Cells were diluted in fresh medium with a starting OD600nm of 0.1 and allowed to grow at 30 °C with shaking for several hours (4-6hs) until they reached log phase (OD600nm 0.6-1.2). Micro slide 8-well glass bottom plates (Catalog 80807, Ibidi, Gräfelfing, Germany) were treated with 50 µL of a 1 mg/ml concanavalin A (prepared in 10 mM sodium phosphate buffer pH 6, 10 mM CaCl2,1 mM MnCl2, 0.01% NaN3, Catalog C2010, Sigma Aldrich) solution, incubated for 5 min and then washed twice with 50 µL of fresh medium. 50 µL of cell suspension was applied, incubated for 5 min and removed. Then each well was washed twice with 50 µL of fresh medium. Finally, 50 µL of fresh medium was added. […]

[2] = biological target: T1, Chc-mScarlet Clathrin box mutant (K63E, I87D, Q89A, K98E) (Saccharomyces cerevisiae, UniProt P22137 1-1653, K63E | I87D | Q89A | K98E); experiment: FRET or BRET; acceptor photobleaching FRET in living yeast cells at endocytic patches stalled with Latrunculin A, donor mNeonGreen on Ent1/Ent2, acceptor mScarlet on Chc, 21 °C; trimmed mean FRET efficiency; conditions: partners not purified
T1 construct: Clathrin heavy chain, Saccharomyces cerevisiae, the ORF of CHC1 fused in the 3' with mScarlet, Clathrin box mutant; also called Cla mutant; source: S. cerevisiae MK100, mutated plasmid pRS315-5'UTR CHC-mScarlet, endogenous CHC1 knocked out, in living cells; not shown: mScarlet, C-terminal, kept
T1 sequence (P22137 whole entry K63E/I87D/Q89A/K98E, the tested form may be a part): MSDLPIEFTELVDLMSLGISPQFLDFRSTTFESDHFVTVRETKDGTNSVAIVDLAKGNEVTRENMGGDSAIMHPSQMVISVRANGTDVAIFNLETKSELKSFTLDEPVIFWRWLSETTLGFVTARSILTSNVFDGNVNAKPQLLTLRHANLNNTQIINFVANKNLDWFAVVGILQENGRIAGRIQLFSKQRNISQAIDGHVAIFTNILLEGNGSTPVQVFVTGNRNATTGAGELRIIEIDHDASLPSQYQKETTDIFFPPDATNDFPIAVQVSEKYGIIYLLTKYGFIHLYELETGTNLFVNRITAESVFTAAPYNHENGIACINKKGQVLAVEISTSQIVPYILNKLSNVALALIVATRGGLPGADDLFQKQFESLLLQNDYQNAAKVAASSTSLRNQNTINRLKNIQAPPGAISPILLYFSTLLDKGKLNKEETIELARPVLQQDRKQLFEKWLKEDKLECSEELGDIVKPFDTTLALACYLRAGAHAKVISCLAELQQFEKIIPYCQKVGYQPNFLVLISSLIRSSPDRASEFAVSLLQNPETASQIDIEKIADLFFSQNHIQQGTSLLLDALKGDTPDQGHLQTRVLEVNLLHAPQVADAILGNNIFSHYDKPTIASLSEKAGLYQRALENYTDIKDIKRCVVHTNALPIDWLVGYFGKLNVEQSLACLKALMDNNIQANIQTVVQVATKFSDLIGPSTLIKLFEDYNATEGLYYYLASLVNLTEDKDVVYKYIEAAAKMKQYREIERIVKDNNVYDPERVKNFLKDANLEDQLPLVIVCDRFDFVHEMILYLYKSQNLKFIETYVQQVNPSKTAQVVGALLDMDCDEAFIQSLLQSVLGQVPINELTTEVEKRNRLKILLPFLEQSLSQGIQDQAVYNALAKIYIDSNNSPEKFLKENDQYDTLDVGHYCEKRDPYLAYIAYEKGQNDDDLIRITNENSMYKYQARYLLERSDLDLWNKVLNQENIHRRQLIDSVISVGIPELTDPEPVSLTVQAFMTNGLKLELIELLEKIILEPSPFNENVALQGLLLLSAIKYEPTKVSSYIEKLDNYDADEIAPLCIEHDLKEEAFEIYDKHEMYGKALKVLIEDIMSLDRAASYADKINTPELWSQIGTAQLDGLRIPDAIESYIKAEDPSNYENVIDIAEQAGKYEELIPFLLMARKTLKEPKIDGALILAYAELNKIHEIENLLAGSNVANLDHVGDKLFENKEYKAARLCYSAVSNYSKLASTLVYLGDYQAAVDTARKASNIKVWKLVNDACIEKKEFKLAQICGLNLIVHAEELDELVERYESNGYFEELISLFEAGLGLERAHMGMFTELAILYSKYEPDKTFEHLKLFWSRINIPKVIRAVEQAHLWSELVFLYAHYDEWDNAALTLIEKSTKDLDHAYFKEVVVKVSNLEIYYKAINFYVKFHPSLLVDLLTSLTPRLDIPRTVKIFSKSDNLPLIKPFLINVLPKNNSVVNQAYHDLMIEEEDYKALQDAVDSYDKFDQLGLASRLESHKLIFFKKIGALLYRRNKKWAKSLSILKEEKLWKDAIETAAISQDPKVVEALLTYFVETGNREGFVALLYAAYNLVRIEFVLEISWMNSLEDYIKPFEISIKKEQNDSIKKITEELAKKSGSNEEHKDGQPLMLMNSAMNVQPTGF

[3] = biological target: T2, Clathrin heavy chain fused to mScarlet (Chc-mScarlet), wild type (Saccharomyces cerevisiae, UniProt P22137 1-1653); experiment: as above; conditions: partners not purified
T2 construct: Clathrin heavy chain, Saccharomyces cerevisiae, the ORF of CHC1 fused in the 3' with mScarlet; also called Chc1-mScarlet; ScCHC-mScarlet; not shown: mScarlet, C-terminal, kept
T2 sequence (P22137 whole entry, the tested form may be a part): as the sequence (P22137 whole entry K63E/I87D/Q89A/K98E, the tested form may be a part) above, with E63K, D87I, A89Q, E98K counted along it

[4] = biological target: T3, Chc-mScarlet Clathrin, Arrestin and W box mutant (Cla+Arr+W) (Saccharomyces cerevisiae, UniProt P22137 1-1653, F26A | K63E | I87D | Q89A | K98E | Q155A | Q195A | I197T | K251E); experiment: as above; conditions: partners not purified
T3 construct: Clathrin heavy chain, Saccharomyces cerevisiae, the ORF of CHC1 fused in the 3' with mScarlet, Clathrin, Arrestin and W box mutant; also called triple mutant; source: S. cerevisiae MK100, mutated plasmid pRS315-5'UTR CHC-mScarlet, endogenous CHC1 knocked out, in living cells; not shown: mScarlet, C-terminal, kept
T3 sequence (P22137 whole entry F26A/K63E/I87D/Q89A/K98E/Q155A/Q195A/I197T/K251E, the tested form may be a part): as the sequence (P22137 whole entry K63E/I87D/Q89A/K98E, the tested form may be a part) above, with F26A, Q155A, Q195A, I197T, K251E counted along it

[5] = biological target: T4, Chc-mScarlet Clathrin and Arrestin box mutant (Cla+Arr) (Saccharomyces cerevisiae, UniProt P22137 1-1653, K63E | I87D | Q89A | K98E | Q195A | I197T | K251E); experiment: as above; conditions: partners not purified
T4 construct: Clathrin heavy chain, Saccharomyces cerevisiae, the ORF of CHC1 fused in the 3' with mScarlet, Clathrin and Arrestin box mutant; source: S. cerevisiae MK100, mutated plasmid pRS315-5'UTR CHC-mScarlet, endogenous CHC1 knocked out, in living cells; not shown: mScarlet, C-terminal, kept
T4 sequence (P22137 whole entry K63E/I87D/Q89A/K98E/Q195A/I197T/K251E, the tested form may be a part): as the sequence (P22137 whole entry K63E/I87D/Q89A/K98E, the tested form may be a part) above, with Q195A, I197T, K251E counted along it

[6] = biological target: T5, Chc-mScarlet Clathrin and W box mutant (Cla+W) (Saccharomyces cerevisiae, UniProt P22137 1-1653, F26A | K63E | I87D | Q89A | K98E | Q155A); experiment: as above; conditions: partners not purified
T5 construct: Clathrin heavy chain, Saccharomyces cerevisiae, the ORF of CHC1 fused in the 3' with mScarlet, Clathrin and W box mutant; source: S. cerevisiae MK100, mutated plasmid pRS315-5'UTR CHC-mScarlet, endogenous CHC1 knocked out, in living cells; not shown: mScarlet, C-terminal, kept
T5 sequence (P22137 whole entry F26A/K63E/I87D/Q89A/K98E/Q155A, the tested form may be a part): as the sequence (P22137 whole entry K63E/I87D/Q89A/K98E, the tested form may be a part) above, with F26A, Q155A counted along it

B1: Ent1 endogenously tagged with mNeonGreen (Ent1-mNeonGreen) (natural protein, UniProt Q12518 1-454, looked up)
chain: MSKQFVRSAKNLVKGYSSTQVLVRNATSNDNHQVSKDSLIELAEKSYDSADFFEIMDMLDKRLNDKGKYWRHIAKALTVIDYLIRFGSENCVLWCRENLYIIKTLKEFRHEDDEGIDQGQIVRVKAKELTALLSDDERLNEERNMNIKGRNRKGRRRRGTGRSDENDDDLQRAISASRLTAEEDERRRKQDEDYETALQLSKEEEELKRLQDLQRMQQQQGQQQLQQPMYYDIFGNPITPEEYAQFQLQQQQQQQQQQLQQQPMYYDVFGNPITPEELAQFQQQQQLQEQQYLASMQQQQQAMSNNPFAKSEQSSSSPKRNQLVAASSPQQLQQQKQQEPLIQNRTGNQSMTDKYSKLNELLATGTGIDTFGNVGEARIPAQHTKTGTFINSQGTGYRQVSDDPNHNPFLNSQYTGLPSTSVVPTQTGYGFGNQSQQQSQNNGSNNRGYTLIDL
notes: epsin Ent1, Saccharomyces cerevisiae, endogenous locus tagged with mNeonGreen; also called Ent1p; source: endogenously tagged, S. cerevisiae MK100, in living cells
[1]
  Frequency of ABP+ (Abp1-positive) endocytic events, Average: 33.3
[2]
  FRET efficiency: ~5%
[3]
  FRET efficiency: ~8%
[4]
  FRET efficiency: 4.66%
[5]
  FRET efficiency: 5.25%
[6]
  FRET efficiency: 5.93%
